These results are taken from patent publication US20200140538A1 (INSTITUTE FOR BASIC SCIENCE, published 2020).

Where a chain is given by its changes, count along the chain named.

In assay [1] the target is T1, mouse IL-2 (mIL-2) (mouse, UniProt P04351 21-169).
T1 construct: Coated on the ELISA plate at 5 ug/ml
T1 sequence (looked up): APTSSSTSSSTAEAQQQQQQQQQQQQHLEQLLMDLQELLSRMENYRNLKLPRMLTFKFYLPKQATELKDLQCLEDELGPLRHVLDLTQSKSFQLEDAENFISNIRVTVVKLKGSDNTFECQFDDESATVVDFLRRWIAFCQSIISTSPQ
As to the kind of experiment: ELISA on plate coated with mIL-2 (5 µg/ml), titrated mAb, detection with anti-mouse IgG HRP or anti-rat IgG HRP. The protocol: In vivo mouse models were used to evaluate the therapeutic efficacy of a hIL-2/TCB2 mAb complex. […] First, the splenocytes of BALB/c mice immunized 3-4 times with hIL-2 over several weeks were fused with SP/2 myeloma cells. When the hybridoma colony was visualized, the culture supernatant was subjected to ELISA. 5 μg/ml of hIL-2 or mIL-2 was added to and mixed with PBS, and a total of 50 μl of the mixture was coated on an ELISA plate. Next, 200 μl of 10% FBS was added to the PBS and incubated at room temperature for 30 minutes in order to prevent non-specific binding, and a titrated dose of the monoclonal antibody was incubated for 30 minutes. The binding of the monoclonal antibody to the coated hIL-2 or mIL-2 was detected with anti-mouse IgG HRP or anti-rat IgG HRP. In each step, the plate was washed 3-5 times with 200 μl of PBS. As positive controls, commercially available monoclonal antibodies were used. As a positive control for hIL-2, Mab602 was used, and as positive controls for mIL-2, JES6-1 and S4B6 were used.
In general terms: An ELISA detects its analyte on a solid surface through an enzyme-linked reagent.

The target in assay [2] is T2, human interleukin-2 (hIL-2) (human, UniProt P60568 21-153).
T2 construct: mature; The 133-residue length in the definition corresponds to the mature protein; also called human IL-2
T2 sequence (P60568 21-153): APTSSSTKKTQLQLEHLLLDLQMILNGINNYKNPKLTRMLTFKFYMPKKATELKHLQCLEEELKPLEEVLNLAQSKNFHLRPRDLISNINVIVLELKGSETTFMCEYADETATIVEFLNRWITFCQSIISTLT
The assay is described as follows: SPR, Biacore T100; antibody immobilized on a CM5 chip by amine coupling, hIL-2 flowed as 2-fold dilutions from 100 nM. The protocol: For detection of hIL-2, […] was used. 900 RU (Rmax=90) of anti-hIL-2 clones were immobilized on a CM5 chip by amine coupling. A 2-fold dilution (100 nM) of hIL-2 was allowed to flow on the chip at a rate of 10 μl/min for 3 minutes, and then dissociation of the hIL-2 was monitored for 10 minutes.

Assay [3] addresses T2, human interleukin-2 (hIL-2). The assay is described as follows: ELISA on plate coated with hIL-2 (5 µg/ml), titrated mAb, detection with anti-mouse IgG HRP or anti-rat IgG HRP.
The target is the same in assay [4]. As to the kind of experiment: kinetic affinity for hIL-2, Set 1; method not given.
Assay [5] shares this target. As to the kind of experiment: kinetic affinity for hIL-2, Set 2; method not given.
The target is the same in assay [6]. As to the kind of experiment: kinetic affinity for hIL-2, Set 1; method not given; Set 1.

B1: S4B6 (antibody, V domains shown)
VH: EVQLQESGAELVRPGTSVKLSCKVSGDTITAYYLHFVRQRPGQGLEWIGRIDPEDDSTKYAENFKNKATFTADASSNTAYLRLSSLTSEDTATYFCTTVTFYYSRELRWFAYWGQGTLVTVSS
VL: DIQVTQSPASLSASLEEIVTITCQASQDIGNYLSWYQQKLGKSPQLLIHSATSLADGVPSRFSGSRSGTQYSLKINRLQVEDTGIYYCLQHYSTPYTFGAGTKLELK
For B1, the EC50 (read off the curve) (commonly the concentration at which the effect is half-maximal) in assay [1] is ~0.3 µg/mL.

B2: MAB602 (antibody, from another filing, V domains shown)
VH: EVQLQESGPGLVAPSQSLSITCTVSGFSLTNYDISWIRQPPGKGLEWLGVIWTGGGTNYNSGFMSRLSITKDNSKSQVFLKMNSLQTDDTAIYYCVRQGRTPYWGQGTLVTVSA
VL: DIQVTQSPSSLSVSLGDRVTITCKASKDIYNRLAWYQQKPGNAPRLLISGATSLETGVPSRFSGSGSGKDYTLTITSLQTEDVATYYCQQFWGTPYTFGGGTKLEIKR
On to B2, for which, in assay [2], the Kd (usually the constant that tells how readily two partners part at equilibrium) was found to be 0.213 nM; the koff – broadly, the rate constant with which the complex falls apart – is 0.000948 s⁻¹; the on-rate (kon) (commonly the second-order rate constant of association) was found to be 4.43e+06 M⁻¹ s⁻¹. Besides, the EC50 (read off the curve) in assay [3] stood at 0.04 µg/mL. This molecule also gave an EC50 (read off the curve) in assay [1] of 0.03 µg/mL.

B3: humanized TCB2 clone VH1+VL2 (antibody, V domains shown)
VH: QVQLVQSGAEVKKPGASVKVSCKASGYTFTTYWIQWVRQAPGQGLEWMGAIYPGDGDTRYIQNFKGRVTMTRDTSTSTVYMELSSLRSEDTAVYYCARSLATRGFYAMDYWGQGTLVTVSS
VL: DIVMTQSPSSLSASVGDRVTIRCITSTDIDDDMNWYQQKPGKAPKLLISEGNTLRPGVPSRFSGSGYGTDFTFTISSLQPEDIADYYCLQSDNLPYTFGGGTKLEIK
notes: Humanized and expressed with human IgG1 Fc; also called VL2+VH1; hnTCB2
In assay [4], B3 came in with a Kd of 0.104 nM, a dissociation rate constant (koff) of 0.00197 s⁻¹ and an on-rate constant (kon) of 1.89e+07 M⁻¹ s⁻¹.

B4: humanized TCB2 clone VH2+VL2 (antibody, V domains shown)
VH: B3 VH with V20L, R38K, M48I, R72A
VL: B3 VL
notes: Humanized and expressed with human IgG1 Fc; also called VL2+VH2; hnTCB2
In assay [4], B4 returned an equilibrium dissociation constant (Kd) of 0.275 nM, a koff of 0.00463 s⁻¹ and an on-rate constant (kon) of 1.68e+07 M⁻¹ s⁻¹.

B5: humanized TCB2 clone AH03463 (VL03463+VH03463) (antibody, V domains shown)
VH: B3 VH with Q1E, R38K
VL: B3 VL with V3Q, R22T, S49Y, G64S, Y67S, D85T
notes: Humanized and expressed with human IgG1 Fc; also called hnTCB2
As for B5, in assay [5], the Kd stood at 0.198 nM, the koff was 0.00418 s⁻¹ and the on-rate (kon) stood at 2.11e+07 M⁻¹ s⁻¹.

B6: TCB2 monoclonal antibody (mouse TCB2) (antibody, V domains shown)
VH: EVQLQQSGAELARPGASVKLSCKASGYTFTTYWIQWVKQRPGQGLEWIGAIYPGDGDTRYIQNFKGKATLTADKSSSTAYMQLSSLASEDSAVYYCARSLATRGFYAMDYWGQGTSVTVSS
VL: DIVMTQSPASLSMAIGEKVTIRCITSTDIDDDMNWYQQKPGEPPKLLISEGNTLRPGVPSRFSSSGYGTDFVFTIENMLSEDVADYYCLQSDNLPYTFGGGTKLEIK
notes: Mouse hybridoma antibody from BALB/c mice immunized with hIL-2; It was detected with anti-mouse IgG HRP; also called TCB2 mAb; mTCB2
Turning to B6, in assay [2], the equilibrium dissociation constant (Kd) worked out at 0.0811 nM, the dissociation rate constant (koff) turned out to be 0.000419 s⁻¹ and the kon is 5.17e+06 M⁻¹ s⁻¹. In addition, the binding result in assay [1] is listed as “no binding (tested: 10000 ng/ml)”.

B7: human chimeric TCB2 (antibody, human IgG2, kappa, V domains shown)
VH: B6 VH
VL: DIVMTQSPASLSMAIGEKVTIRCITSTDIDDDMNWYQQKPGEPPKLLISEGNTLRPGVPSRFSSSGYGTDFVFTIENMLSEDVADYYCLQSDNLPYTFGGGTKLEIKR
notes: The Fab region of TCB2 mAb was cloned into an IgG2 expression vector; also called hcTCB2
The molecule B7 returned a kon in assay [6] of 2.27e+07 M⁻¹ s⁻¹. In assay [4], this molecule returned a dissociation constant Kd of 0.0717 nM and a dissociation rate constant (koff) of 0.00163 s⁻¹. Moreover, in assay [5], the dissociation constant (Kd) was determined as 0.0616 nM, the koff came out at 0.00141 s⁻¹ and the kon worked out at 2.29e+07 M⁻¹ s⁻¹.
